B1: … (Flu.PB1.683) (peptide)
peptide: RGILEDEQMYQKCCN
modifications: not checked
B2: … (Flu.PB1.682) (peptide)
peptide: QRGILEDEQMYQKCC
modifications: not checked
B3: LRNLMS1SRTREILT (Flu.PB2.10) (peptide)
peptide: LRNLMSQSRTREILT
modifications: not checked
B4: … (Flu.PB2.205) (peptide)
peptide: MVAYMLERELVRKTR
modifications: not checked
B5: … (Flu.PB2.135) (peptide)
peptide: PVHFRNQVKIRRRVD
modifications: not checked
B6: … (Flu.PB2.57) (peptide)
peptide: KYPITADKRIMEMIP
modifications: not checked
B7: … (Flu.PB2.250) (peptide)
peptide: GGEVRNDDVDQSLII
modifications: not checked
B8: Flu.NA.26 peptide … (peptide)
peptide: IGNMISIWVSHSIHTG
modifications: not checked
B9: Flu.NA.289 peptide … (peptide)
peptide: NLEYQIGYICSGVFG
modifications: not checked
B10: Flu.NA.183 peptide … (peptide)
peptide: VAVLKYNGIITDTIKSW
modifications: not checked
B11: Flu.NA.110 peptide … (peptide)
peptide: RTFFLTQGALLNDKHS
modifications: not checked
B12: Flu.NA.126 peptide … (peptide)
peptide: NGTVKDRSPHRTLMS
modifications: not checked
B13: Flu.PA.12 (peptide)
peptide: FNPMIVELAEKTMKE
modifications: not checked
B14: Flu.NS2.178 (peptide)
peptide: ALQLLFEVEQEIRTF
modifications: not checked
B15: Flu.PA.446 (peptide)
peptide: RNYFTAEVSHCRATE
modifications: not checked
B16: Flu.NS2.180 (peptide)
peptide: QLLLEVEQEIRTFSF
modifications: not checked
B17: Flu.PA.393 (peptide)
peptide: LKQYDSDEPELRSLS
modifications: not checked
B18: Flu.PA.423 (peptide)
peptide: SIWIELDEIGEDVAP
modifications: not checked
B19: Flu.HA.532 (peptide)
peptide: ILSIYSTVASSLALAI
modifications: not checked
B20: Flu.M1.43 (peptide)
peptide: EALMEWLKTRPILSP
modifications: not checked
B21: Flu.HA.210 (peptide)
peptide: PTTYISVGTSTLNQRL
modifications: not checked
B22: Flu.M1.46 (peptide)
peptide: MEWLKTRPILSPLTK
modifications: not checked
B23: Flu.HA.163 (peptide)
peptide: VVWLIKKNSTYPTIKR
modifications: not checked
B24: Flu.HA.318 (peptide)
peptide: CPKYVKSNRLVLATGL
modifications: not checked
B25: Flu.M1.51 (peptide)
peptide: TRPILSPLTKGILGF
modifications: not checked
B26: Flu.HA.529 (peptide)
peptide: IYQILSIYSTVASSLA
modifications: not checked
B27: Flu.HA.444 (peptide)
peptide: LLVLMENERTLDFHD
modifications: not checked
B28: Flu.PB2.404 (peptide)
peptide: AMVFSQEDCMIKAVR
modifications: not checked
B29: Flu.PB2.496 (peptide)
peptide: RVVVSIDRFLRVRDQ
modifications: not checked
B30: Flu.PB2.697 (peptide)
peptide: FLILGKEDRRYGPAL
modifications: not checked
B31: Flu.PB2.483 (peptide)
peptide: VSKMGVDEYSSTERV
modifications: not checked

What follows are binders tested against purified HLA-DR molecule DRB1*0101 (human) (assay: competition with 125I-labelled peptide for purified HLA).

Row | Binder | IC50 [nM]
1 | B1 | 199
2 | B2 | 433
3 | B3 | 613
4 | B4 | 97
5 | B5 | 2970

The binders below were run against purified HLA-DR molecule DRB1*1302 (human) in the same assay as above.

Row | Binder | IC50 [nM]
6 | B1 | 18000
7 | B6 | 68
8 | B2 | 10900
9 | B3 | 5.4
10 | B4 | 2080
11 | B7 | 2500
12 | B5 | 359

The binders below were run against purified HLA-DR molecule DRB1*0405 (human) in the same assay as above.

Row | Binder | IC50 [nM]
13 | B1 | 3280
14 | B2 | 700
15 | B3 | 9690
16 | B4 | 5540
17 | B5 | 6040

Each binder was assayed against purified HLA-DR molecule DRB1*0301 (human) in the same assay as above.

Row | Binder | IC50 [nM]
18 | B1 | 43
19 | B6 | 48
20 | B2 | 34
21 | B3 | 978
22 | B4 | 878
23 | B7 | 347
24 | B5 | 458

What follows are binders tested against purified HLA-DR molecule DRB1*0401 (human) in the same assay as above.

Row | Binder | IC50 [nM]
25 | B1 | 5740
26 | B6 | 9390
27 | B2 | 2560
28 | B3 | 4970
29 | B4 | 166
30 | B7 | 2160
31 | B5 | 1300

Each binder was assayed against purified HLA-DR molecule DRB1*0404 (human) in the same assay as above.

Row | Binder | IC50 [nM]
32 | B1 | 10500
33 | B6 | 2290
34 | B2 | 3270
35 | B3 | 170
36 | B4 | 499
37 | B7 | 458
38 | B5 | 5980

The binders below were run against HLA-DR DRB4*0101 (human) (assay: competition with 125I-labelled reference peptide on purified HLA-DR).

Row | Binder | IC50 [nM]
39 | B8 | 817
40 | B9 | 354
41 | B10 | 289
42 | B11 | 2320
43 | B12 | 8880

What follows are binders tested against HLA-DR DRB1*1501 (human) in the same assay as above.

Row | Binder | IC50 [nM]
44 | B8 | 81
45 | B9 | 13
46 | B10 | 19
47 | B11 | 790
48 | B12 | 267

What follows are binders tested against HLA-DR DRB1*0401 (human) in the same assay as above.

Row | Binder | IC50 [nM]
49 | B8 | 925
50 | B9 | 975
51 | B10 | 319
52 | B11 | 251
53 | B12 | 17900

These binders were tested against HLA-DR DRB1*0101 (human) in the same assay as above.

Row | Binder | IC50 [nM]
54 | B8 | 1050
55 | B9 | 1130
56 | B10 | 3390
57 | B11 | 16
58 | B12 | 581

These binders were tested against HLA-DR DRB1*1302 (human) in the same assay as above.

Row | Binder | IC50 [nM]
59 | B8 | 5950
60 | B9 | 41
61 | B10 | 169
62 | B11 | 3200
63 | B12 | 7930

What follows are binders tested against HLA-DR DRB1*0404 (human) (assay: competition with 125I-labeled reference peptide, purified HLA).

Row | Binder | IC50 [nM]
64 | B13 | 610
65 | B14 | 2150
66 | B15 | 7600
67 | B16 | 1600
68 | B17 | 5800

What follows are binders tested against HLA-DR DRB1*0405 (human) in the same assay as above.

Row | Binder | IC50 [nM]
69 | B13 | 1240
70 | B14 | 8870
71 | B15 | 5720
72 | B18 | > 10000
73 | B16 | 5140
74 | B17 | > 10000

These binders were tested against HLA-DR DRB1*0301 (human) in the same assay as above.

Row | Binder | IC50 [nM]
75 | B13 | 744
76 | B14 | 403
77 | B15 | 883
78 | B18 | 59
79 | B16 | 792
80 | B17 | 88

The binders below were run against HLA-DR DRB1*0401 (human) in the same assay as above.

Row | Binder | IC50 [nM]
81 | B13 | 29
82 | B14 | 10300
83 | B15 | 45
84 | B18 | 5400
85 | B16 | 13900
86 | B17 | 7260

Each binder was assayed against HLA-DR DRB1*0101 (human) in the same assay as above.

Row | Binder | IC50 [nM]
87 | B13 | 48
88 | B14 | 3490
89 | B15 | 627
90 | B18 | 13400
91 | B16 | 11900
92 | B17 | 17700

Each binder was assayed against HLA-DR DRB1*1302 (human) in the same assay as above.

Row | Binder | IC50 [nM]
93 | B13 | 1250
94 | B14 | > 10000
95 | B15 | > 10000
96 | B18 | > 10000
97 | B16 | 13200
98 | B17 | > 10000

What follows are binders tested against HLA-DR DRB4*0101 (human) (assay: competition vs 125I-labeled peptide, purified HLA).

Row | Binder | IC50 [nM]
99 | B19 | 824
100 | B20 | 5510
101 | B21 | 522
102 | B22 | 7940
103 | B23 | 1660
104 | B24 | 287
105 | B25 | 192
106 | B26 | 18

What follows are binders tested against HLA-DR DRB1*1501 (human) (assay: competition vs 125I-labeled peptide, purified HLA).

Row | Binder | IC50 [nM]
107 | B19 | 20
108 | B20 | 18
109 | B21 | 1720
110 | B22 | 111
111 | B23 | 99
112 | B24 | 230
113 | B25 | 140
114 | B26 | 4.7

Each binder was assayed against HLA-DR DRB1*0301 (human) (assay: competition vs 125I-labeled peptide, purified HLA).

Row | Binder | IC50 [nM]
115 | B27 | 64
116 | B24 | 2920

These binders were tested against HLA-DR DRB1*0401 (human) (assay: competition vs 125I-labeled peptide, purified HLA).

Row | Binder | IC50 [nM]
117 | B19 | 91
118 | B20 | 891
119 | B21 | 59
120 | B22 | 528
121 | B23 | 289
122 | B24 | 868
123 | B26 | 89

The binders below were run against HLA-DR DRB1*0101 (human) (assay: competition vs 125I-labeled peptide, purified HLA).

Row | Binder | IC50 [nM]
124 | B19 | 11
125 | B20 | 9.5
126 | B21 | 190
127 | B22 | 52
128 | B23 | 464
129 | B24 | 2760
130 | B25 | 423
131 | B26 | 55

The binders below were run against HLA-DR DRB1*1302 (human) (assay: competition vs 125I-labeled peptide, purified HLA).

Row | Binder | IC50 [nM]
132 | B19 | 7.6
133 | B20 | 380
134 | B21 | 957
135 | B22 | 3880
136 | B23 | 14
137 | B24 | 48
138 | B25 | 292
139 | B26 | 13

The binders below were run against purified HLA-DR DRB1*0405 (human) (assay: competition with 125I-labelled reference peptide, purified HLA).

Row | Binder | IC50 [nM]
140 | B28 | 6780
141 | B29 | 2050

The binders below were run against purified HLA-DR DRB1*0401 (human) in the same assay as above.

Row | Binder | IC50 [nM]
142 | B30 | 1740
143 | B28 | 3280
144 | B29 | 111

These binders were tested against purified HLA-DR DRB1*0101 (human) in the same assay as above.

Row | Binder | IC50 [nM]
145 | B30 | 8390
146 | B28 | 11000
147 | B29 | 1860

What follows are binders tested against purified HLA-DR DRB1*1302 (human) in the same assay as above.

Row | Binder | IC50 [nM]
148 | B30 | 118
149 | B28 | 9200
150 | B29 | 8.1
151 | B31 | 1850

These binders were tested against purified HLA-DR DRB1*0404 (human) in the same assay as above.

Row | Binder | IC50 [nM]
152 | B28 | 336
153 | B29 | 400

What follows are binders tested against purified HLA-DR DRB1*0301 (human) in the same assay as above.

Row | Binder | IC50 [nM]
154 | B30 | 565
155 | B28 | 718
156 | B29 | 67
157 | B31 | 1020
